Laboratory results as given in PMC11798926.

B1: myc-tagged SynDIG4 (wild type) [rat] / HA-tagged μ2 AP subunit [not stated] (parent)
chain 1: MSSEKSGLPDSVPHTSPPPYNAPQPPAEPPIPPPQTAPSSHHHHHHHYHQSGTATLPRLGAGGLASAAAGAQRGPSSSATLPRPPHHAPPGPAAGAPPPGCATLPRMPPDPYLQETRFEGPLPPPPPAAAAPPPPAPAPTAQAPGFVVPTHAGAVGTLPLGGYVAPGYPLQLQPCTAYVPVYPVGTPYASGTPGGPGVTSTLPPPPQGPGLALLEPRRPPHDYMPIAVLTTICCFWPTGIIAIFKAVQVRTALARGDLVSAEIASREARNFSFISLAVGIAAMVLCTILTVVIIIAAQHHENYWDP
chain 2: MIGGLFIYNHKGEVLISRVYRDDIGRNAVDAFRVNVIHARQQVRSPVTNIARTSFFHVKRSNIWLAAVTKQNVNAAMVFEFLYKMCDVMAAYFGKISEENIKNNFVLIYELLDEILDFGYPQNSETGALKTFITQQGIKSQHQTKEEQSQITSQVTGQIGWRREGIKYRRNELFLDVLESVNLLMSPQGQVLSAHVSGRVVMKSYLSGMPECKFGMNDKIVIEKQGKGTADETSKSGKQSIAIDDCTFHQCVRLSKFDSERSISFIPPDGEFELMRYRTTKDIILPFRVIPLVREVGRTKLEVKVVIKSNFKPSLLAQKIEVRIPTPLNTSGVQVICMKGKAKYKASENAIVWKIKRMAGMKESQISAEIELLPTNDKKKWARPPISMNFEVPFAPSGLKVRYLKVFEPKLNYSDHDVIKWVRYIGRSGIYETRC

Variants of: B1
Assay: co-immunoprecipitation (IP: HA, blot: myc), quantified
Details: with HA-tagged μ2 AP subunit; HEK293T cells; first bar chart of panel D (SD4 vs AVPA); parent: 100; read off a plot

Row | percent of parent [%SD4] | Variant
1 | 45 | chain 1 Y178A V181A

Same assay, conditions: with HA-tagged μ2 AP subunit; HEK293T cells; third bar chart of panel D (SD4 vs AVPA vs ∆170-89); marked ns; parent: 100; read off a plot

Row | percent of parent [%SD4] | Variant
2 | 55 | chain 1 Y178A V181A
